T1: CMV pp65 peptide on HLA-A*11:01 (human)
T1 peptide: ATVQGQNLK

B1: Tenth group of TCR (TCR, V domains shown)
V domain 1: QTVTQSQPEMSVQEAETVTLSCTYDTSESDYYLFWYKQPPSRQMILVIRQEAYKQQNATENRFSVNFQKAAKSFSLKISDSQLGDAAMYFCAYRSFYTGANSKLTFGKGITLSVRP
V domain 2: DAGVTQSPTHLIKTRGQQVTLRCSPKSGHDTVSWYQQALGQGPQFIFQYYEEEERQRGNFPDRFSGHQFPNYSSELNVNALLLGDSALYLCASSLYGGPGDQPQHFGDGTRLSILE
B2: Tenth group of TCR (TCR, V domains shown)
Valpha: AQTVTQSQPEMSVQEAETVTLSCTYDTSESDYYLFWYKQPPSRQMILVIRQEAYKQQNATENRFSVNFQKAAKSFSLKISDSQLGDAAMYFCAYRSFYTGANSKLTFGKGITLSVRP
Vbeta: DAGVTQSPTHLIKTRGQQVTLRCSPKSGHDTVSWYQQALGQGPQFIFQYYEEEERQRGNFPDRFSGHQFPNYSSELNVNALLLGDSALYLCASSLYGGPGDQPQHFGDGTRLSIL
B3: Ninth group of TCR (TCR, V domains shown)
V domain 1: EDQVTQSPEALRLQEGESSSLNCSYTVSGLRGLFWYRQDPGKGPEFLFTLYSAGEEKEKERLKATLTKKESFLHITAPKPEDSATYLCVITTSGTYKYIFGTGTRLKVLA
V domain 2: NAGVTQTPKFQVLKTGQSMTLQCAQDMNHNSMYWYRQDPGMGLRLIYYSASEGTTDKGEVPNGYNVSRLNKREFSLRLESAAPSQTSVYFCASTINTYEQYFGPGTRLTVTE
B4: Ninth group of TCR (TCR, V domains shown)
Valpha: B3 V domain 1
Vbeta: NAGVTQTPKFQVLKTGQSMTLQCAQDMNHNSMYWYRQDPGMGLRLIYYSASEGTTDKGEVPNGYNVSRLNKREFSLRLESAAPSQTSVYFCASTINTYEQYFGPGTRLTVT

Legend:
[1] = target: CMV pp65501-509 antigen complex on Caki-2-PP65 target cells (human; human cytomegalovirus, UniProt P61769 21-119); assay: cell-based or functional assay
[2] = target: T1, CMV pp65 peptide on HLA-A*11:01; assay: multimer staining

Binder	killing activity at 4 h (RTCA), Caki-2-PP65 target cells, effector-to-target ratio 1:1 [1] [%]	killing activity at 4 h (RTCA), Caki-2-PP65 target cells, effector-to-target ratio 5:1 (ratio cell blank in this row, taken from r7) [1] [%]	killing activity at 4 h (RTCA), Caki-2-PP65 target cells, effector-to-target ratio 10:1 [1] [%]	binding result [2]	killing activity at 4 h (RTCA), Caki-2-PP65 target cells, effector-to-target ratio 5:1 [1] [%]
B1	23.5	61.2	67.4	–	–
B2	–	–	–	recognises	–
B3	7.1	–	61.5	–	44.5
B4	–	–	–	recognises	–

From patent publication EP4624499A1 (Immunotech Applied Science Limited, dated 2025)
